Test results: US20190241648A1 (STATEN BIOTECHNOLOGY B V, published 2019)
Ends that are not written are not given here.

Key:
Assay in all cases: peptide microarray
ApoC3 peptide … D45C = biological target: T1, ApoC3 peptide … D45C (human, not fully specified (bridges); also: cyclic constrained)
T1 peptide: ARGWVTCGFSSLK
Procedure, shortened: (§1)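 Peptide microarrays of ApoC3-derived peptides incubated with antibody samples, then stained with goat anti-human IgG (Fc) DyLight680 (1:5000) and anti-HA DyLight800 (1:2000) control. Read-out by fluorescence scanning at intensities 7/7 (red/green); a secondary-only pre-stain checked background, HA frame peptides served as quality control.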

ApoC3 peptide … R40C = biological target: T2, ApoC3 peptide … R40C (human, not fully specified (bridges); also: cyclic constrained)
T2 peptide: ACGWVTDGFSSLK
Procedure, shortened: as §1

ApoC3 peptide … R40V = biological target: T3, ApoC3 peptide … R40V (human, thioether (positions not given here); also: cyclic constrained)
T3 peptide: AVGWVTDGFSSLK
Procedure, shortened: as §1

ApoC3 peptide … W42F = biological target: T4, ApoC3 peptide … W42F (human, not fully specified (bridges); also: cyclic constrained)
T4 peptide: ARGFVTDGFSSLK
Procedure, shortened: as §1

ApoC3 peptide … D45L = biological target: T5, ApoC3 peptide … D45L (human, cyclic constrained)
T5 peptide: ARGWVTLGFSSLK
Procedure, shortened: as §1

ApoC3 peptide … T44W = biological target: T6, ApoC3 peptide … T44W (human, not fully specified (bridges); also: cyclic constrained)
T6 peptide: ARGWVWDGFSSLK
Procedure, shortened: as §1

ApoC3 peptide … L50N = biological target: T7, ApoC3 peptide … L50N (human, not fully specified; cyclic constrained)
T7 peptide: ARGWVTDGFSSNK
Procedure, shortened: as §1

ApoC3 peptide … T44K = biological target: T8, ApoC3 peptide … T44K (human, not fully specified (bridges); also: cyclic constrained)
T8 peptide: ARGWVKDGFSSLK
Procedure, shortened: as §1

ApoC3 peptide … F47C = biological target: T9, ApoC3 peptide … F47C (human, not fully specified (bridges); also: cyclic constrained)
T9 peptide: ARGWVTDGCSSLK
Procedure, shortened: as §1

ApoC3 peptide … L50G = biological target: T10, ApoC3 peptide … L50G (human, not fully specified; cyclic constrained)
T10 peptide: ARGWVTDGFSSGK
Procedure, shortened: as §1

ApoC3 peptide … G46D = biological target: T11, ApoC3 peptide … G46D (human, also: cyclic constrained)
T11 peptide: ARGWVTDDFSSLK
Procedure, shortened: as §1

ApoC3 peptide … S49M = biological target: T12, ApoC3 peptide … S49M (human, cyclic constrained)
T12 peptide: ARGWVTDGFSMLK
Procedure, shortened: as §1

ApoC3 peptide … G46Y = biological target: T13, ApoC3 peptide … G46Y (human, thioether (positions not given here); also: cyclic constrained)
T13 peptide: ARGWVTDYFSSLK
Procedure, shortened: as §1

ApoC3 peptide … G41N = biological target: T14, ApoC3 peptide … G41N (human, also: cyclic constrained)
T14 peptide: ARNWVTDGFSSLK
Procedure, shortened: as §1

ApoC3 peptide … D45R = biological target: T15, ApoC3 peptide … D45R (human, cyclic constrained)
T15 peptide: ARGWVTRGFSSLK
Procedure, shortened: as §1

ApoC3 peptide … L50R = biological target: T16, ApoC3 peptide … L50R (human, not fully specified (bridges); also: cyclic constrained)
T16 peptide: ARGWVTDGFSSRK
Procedure, shortened: as §1

ApoC3 peptide … G41W = biological target: T17, ApoC3 peptide … G41W (human, also: cyclic constrained)
T17 peptide: ARWWVTDGFSSLK
Procedure, shortened: as §1

ApoC3 peptide … S49P = biological target: T18, ApoC3 peptide … S49P (human, cyclic constrained)
T18 peptide: ARGWVTDGFSPLK
Procedure, shortened: as §1

ApoC3 peptide … R40T = biological target: T19, ApoC3 peptide … R40T (human, not fully specified (bridges); also: cyclic constrained)
T19 peptide: ATGWVTDGFSSLK
Procedure, shortened: as §1

ApoC3 peptide … G46P = biological target: T20, ApoC3 peptide … G46P (human, not fully specified (bridges); also: cyclic constrained)
T20 peptide: ARGWVTDPFSSLK
Procedure, shortened: as §1

ApoC3 peptide … F47L = biological target: T21, ApoC3 peptide … F47L (human, not fully specified (bridges); also: cyclic constrained)
T21 peptide: ARGWVTDGLSSLK
Procedure, shortened: as §1

ApoC3 peptide … G41D = biological target: T22, ApoC3 peptide … G41D (human, also: cyclic constrained)
T22 peptide: ARDWVTDGFSSLK
Procedure, shortened: as §1

ApoC3 peptide … S48D = biological target: T23, ApoC3 peptide … S48D (human, not fully specified; cyclic constrained)
T23 peptide: ARGWVTDGFDSLK
Procedure, shortened: as §1

ApoC3 peptide … R40I = biological target: T24, ApoC3 peptide … R40I (human, not fully specified (bridges); also: cyclic constrained)
T24 peptide: AIGWVTDGFSSLK
Procedure, shortened: as §1

ApoC3 peptide … R40D = biological target: T25, ApoC3 peptide … R40D (human, not fully specified (bridges); also: cyclic constrained)
T25 peptide: ADGWVTDGFSSLK
Procedure, shortened: as §1

ApoC3 peptide … S48N = ApoC3 peptide … S48N (human, cyclic constrained)
Procedure, shortened: as §1

ApoC3 peptide … S49H = biological target: T26, ApoC3 peptide … S49H (human, cyclic constrained)
T26 peptide: ARGWVTDGFSHLK
Procedure, shortened: as §1

ApoC3 peptide … V43I = biological target: T27, ApoC3 peptide … V43I (human, not fully specified; cyclic constrained)
T27 peptide: ARGWITDGFSSLK
Procedure, shortened: as §1

ApoC3 peptide … G41I = biological target: T28, ApoC3 peptide … G41I (human, also: cyclic constrained)
T28 peptide: ARIWVTDGFSSLK
Procedure, shortened: as §1

ApoC3 peptide … W42S = biological target: T29, ApoC3 peptide … W42S (human, not fully specified (bridges); also: cyclic constrained)
T29 peptide: ARGSVTDGFSSLK
Procedure, shortened: as §1

ApoC3 peptide … T44C = biological target: T30, ApoC3 peptide … T44C (human, not fully specified (bridges); also: cyclic constrained)
T30 peptide: ARGWVCDGFSSLK
Procedure, shortened: as §1

B1: anti-ApoC3 antibody 14C7 (antibody, V domains shown)
VH: QVQVQESGPGLVKPSQTLSLTCTVSGGSITTNSYYWSWIRQPPGKGLEWMGAIDYSGDTYYSPSLKSRTSISRDTSKNQFTLQLTSVTPEDTAVYYCVSRIPTGEYWGQGTQVTVSS
VL: QTVVTQEPSLSVSPGGTVTLTCGLNSGSVTSSNYPDWYQQTPGQAPRLLIYNTNSRHSGVPSRFSGSISGNKAALTITGAQPEDEADYYCALYMGSDSVVFGGGTHLTVL
notes: it was detected with goat anti-human IgG (Fc); also called mAb 14C7; llama antibody 14C7
% of binding to wild-type peptide (ApoC3 peptide … D45C): 11.2% | % of binding to wild-type peptide (ApoC3 peptide … R40C): 62.3% | % of binding to wild-type peptide (ApoC3 peptide … R40V): 57.5% | % of binding to wild-type peptide (ApoC3 peptide … W42F): 242% | % of binding to wild-type peptide (ApoC3 peptide … D45L): 17.1% | % of binding to wild-type peptide (ApoC3 peptide … T44W): 0% | % of binding to wild-type peptide (ApoC3 peptide … L50N): 0% | % of binding to wild-type peptide (ApoC3 peptide … T44K): 0% | % of binding to wild-type peptide (ApoC3 peptide … F47C): 0% | % of binding to wild-type peptide (ApoC3 peptide … L50G): 0% | % of binding to wild-type peptide (ApoC3 peptide … G46D): 0% | % of binding to wild-type peptide (ApoC3 peptide … S49M): 1.86% | % of binding to wild-type peptide (ApoC3 peptide … G46Y): 0% | % of binding to wild-type peptide (ApoC3 peptide … G41N): 27.5% | % of binding to wild-type peptide (ApoC3 peptide … D45R): 20.1% | % of binding to wild-type peptide (ApoC3 peptide … L50R): 0% | % of binding to wild-type peptide (ApoC3 peptide … G41W): 17.7% | % of binding to wild-type peptide (ApoC3 peptide … S49P): 0% | % of binding to wild-type peptide (ApoC3 peptide … R40T): 38.7% | % of binding to wild-type peptide (ApoC3 peptide … G46P): 0% | % of binding to wild-type peptide (ApoC3 peptide … F47L): 4.56% | % of binding to wild-type peptide (ApoC3 peptide … G41D): 19.4% | % of binding to wild-type peptide (ApoC3 peptide … S48D): 71.6% | % of binding to wild-type peptide (ApoC3 peptide … R40I): 35.1% | % of binding to wild-type peptide (ApoC3 peptide … R40D): 50% | % of binding to wild-type peptide (ApoC3 peptide … S48N): 48.5% | % of binding to wild-type peptide (ApoC3 peptide … S49H): 0.56% | % of binding to wild-type peptide (ApoC3 peptide … V43I): 41% | % of binding to wild-type peptide (ApoC3 peptide … G41I): 5.33% | % of binding to wild-type peptide (ApoC3 peptide … W42S): 204% | % of binding to wild-type peptide (ApoC3 peptide … T44C): 0%
